# Measurements taken from patent US6682898B2, “High-throughput screening assays for modulators of STAT4 activity” (Tularik Inc., priority 1998, dated 2004).
# Non-standard residues stand in square brackets, D forms with d. Residues, ends and D or L forms follow the SMILES beside them. No end group written: not given here. pY = N[C@@H](Cc1ccc(OP(=O)(O)O)cc1)C(=O)O
# T1: STAT6 (Homo sapiens, UniProt P42226)
# T1 sequence (P42226 1-847): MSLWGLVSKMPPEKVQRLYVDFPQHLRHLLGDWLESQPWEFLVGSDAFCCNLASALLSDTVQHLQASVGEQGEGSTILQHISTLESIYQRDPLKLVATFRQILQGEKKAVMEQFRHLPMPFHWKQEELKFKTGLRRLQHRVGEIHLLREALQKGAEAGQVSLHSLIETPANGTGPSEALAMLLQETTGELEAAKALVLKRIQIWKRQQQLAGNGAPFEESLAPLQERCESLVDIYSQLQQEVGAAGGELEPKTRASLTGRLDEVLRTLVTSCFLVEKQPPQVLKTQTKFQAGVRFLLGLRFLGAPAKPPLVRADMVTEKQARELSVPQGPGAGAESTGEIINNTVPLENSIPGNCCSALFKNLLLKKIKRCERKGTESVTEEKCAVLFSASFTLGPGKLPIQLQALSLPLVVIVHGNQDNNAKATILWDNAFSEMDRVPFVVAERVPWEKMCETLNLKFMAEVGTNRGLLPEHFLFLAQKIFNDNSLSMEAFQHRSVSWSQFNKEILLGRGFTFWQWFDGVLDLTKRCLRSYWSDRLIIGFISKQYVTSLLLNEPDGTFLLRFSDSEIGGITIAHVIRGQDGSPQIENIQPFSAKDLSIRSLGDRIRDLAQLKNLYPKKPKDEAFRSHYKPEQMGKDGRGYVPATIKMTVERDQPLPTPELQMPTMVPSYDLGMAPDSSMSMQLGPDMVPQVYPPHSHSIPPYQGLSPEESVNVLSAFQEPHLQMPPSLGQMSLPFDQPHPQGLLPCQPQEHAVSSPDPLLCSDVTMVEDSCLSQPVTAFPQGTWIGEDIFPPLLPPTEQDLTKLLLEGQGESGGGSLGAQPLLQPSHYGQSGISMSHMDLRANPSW
# T2: STAT1 (Homo sapiens, UniProt P42224)
# T2 sequence (P42224 1-750): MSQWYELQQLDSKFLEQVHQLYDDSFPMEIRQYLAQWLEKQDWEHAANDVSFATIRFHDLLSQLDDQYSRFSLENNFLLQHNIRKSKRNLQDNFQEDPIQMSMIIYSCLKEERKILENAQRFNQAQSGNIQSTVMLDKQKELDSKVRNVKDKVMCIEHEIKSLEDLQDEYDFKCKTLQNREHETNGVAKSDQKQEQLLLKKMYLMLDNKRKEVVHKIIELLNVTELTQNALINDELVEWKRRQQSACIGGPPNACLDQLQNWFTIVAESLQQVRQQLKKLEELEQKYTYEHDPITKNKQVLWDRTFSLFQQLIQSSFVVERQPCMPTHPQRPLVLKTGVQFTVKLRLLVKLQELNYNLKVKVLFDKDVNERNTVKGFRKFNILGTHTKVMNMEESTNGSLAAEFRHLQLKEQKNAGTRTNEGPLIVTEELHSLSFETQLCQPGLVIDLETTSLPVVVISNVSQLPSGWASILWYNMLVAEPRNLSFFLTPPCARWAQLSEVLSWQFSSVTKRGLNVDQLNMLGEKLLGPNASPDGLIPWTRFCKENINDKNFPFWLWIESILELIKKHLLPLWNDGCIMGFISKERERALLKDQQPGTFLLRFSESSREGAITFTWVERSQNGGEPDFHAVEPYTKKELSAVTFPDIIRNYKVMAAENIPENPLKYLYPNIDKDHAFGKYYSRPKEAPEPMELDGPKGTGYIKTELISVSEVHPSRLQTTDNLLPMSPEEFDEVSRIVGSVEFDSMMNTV
# T3: STAT4 (Homo sapiens, UniProt Q14765)
# T3 sequence (Q14765 1-748): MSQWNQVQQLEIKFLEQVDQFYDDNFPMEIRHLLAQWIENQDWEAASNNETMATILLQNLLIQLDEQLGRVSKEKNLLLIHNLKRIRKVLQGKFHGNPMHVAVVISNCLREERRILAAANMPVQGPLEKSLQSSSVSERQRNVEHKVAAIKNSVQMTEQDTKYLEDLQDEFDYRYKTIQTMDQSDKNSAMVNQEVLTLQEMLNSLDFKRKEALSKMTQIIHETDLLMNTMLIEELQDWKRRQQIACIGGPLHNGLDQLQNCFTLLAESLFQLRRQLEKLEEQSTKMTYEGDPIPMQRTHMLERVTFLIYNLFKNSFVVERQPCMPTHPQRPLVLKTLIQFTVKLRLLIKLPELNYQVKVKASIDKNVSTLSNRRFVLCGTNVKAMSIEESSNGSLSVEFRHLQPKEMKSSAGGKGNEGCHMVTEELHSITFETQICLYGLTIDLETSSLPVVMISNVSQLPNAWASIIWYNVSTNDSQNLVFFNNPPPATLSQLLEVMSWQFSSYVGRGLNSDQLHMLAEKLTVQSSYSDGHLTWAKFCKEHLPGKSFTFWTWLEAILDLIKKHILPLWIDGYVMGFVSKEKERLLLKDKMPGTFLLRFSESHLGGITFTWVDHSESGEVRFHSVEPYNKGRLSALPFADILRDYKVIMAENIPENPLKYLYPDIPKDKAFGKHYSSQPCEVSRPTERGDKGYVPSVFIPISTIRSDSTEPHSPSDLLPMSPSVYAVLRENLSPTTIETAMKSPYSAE
# T4: STAT6 (UniProt P42226 1-847, limits assumed)
# T4 construct: also called STAT6 polypeptide
# T4 sequence (looked up): T1 sequence (P42226 1-847)
# T5: STAT4 (UniProt Q14765 1-748, limits assumed)
# T5 construct: also called STAT4 polypeptide
# T5 sequence (looked up): T3 sequence (Q14765 1-748)
# B1: SHEGY^PLPSNID (IL-12 receptor) (peptide)
# peptide: SHEG[pY]LPSNID
# notes: Native IL-12 receptor-derived phosphopeptide; also called IL-12 receptor peptide
# B2: SHEGY^PLPWNID (peptide)
# peptide: SHEG[pY]LPWNID
# B3: SHEGY^PLPNNID (peptide)
# peptide: SHEG[pY]LPNNID
# B4: SHEGY^PLPHNID (peptide)
# peptide: SHEG[pY]LPHNID
# B5: SHEGY^PLPQNID (peptide)
# peptide: SHEG[pY]LPQNID
# B6: ASSGEEGY^PKPFQDLI (peptide)
# peptide: ASSGEEG[pY]KPFQDLI
# How the values were obtained:
# [1] = biological target: T1, STAT6; assay: STAT6 binding to phosphotyrosine receptor peptides (IC50 / binding affinity)
# [2] = biological target: T1, STAT6; assay: Chemiluminescence binding assay, signal to noise, STAT6
# Description: (§1) The assays of the invention can be conducted as an ELISA assay, using a 96-well microplate format or a larger format if desired. In one embodiment, a phosphotyrosine-containing receptor peptide is incubated with a protein which contains an SH2 domain (e.g., a STAT polypeptide) to provide opportunity for the SH2 domain containing protein to bind the peptide. The peptide is preferably bound to a tag, e.g., biotin, at the amino terminus of the peptide. There can be a spacer between the tag and the peptide. The solution is placed in wells of a 96-well microplate that are coated with a tag binder, e.g., streptavidin. Reduction of background is achieved by incubating, in a separate reaction, a primary antibody specific for the SH2 domain containing protein and a secondary antibody specific for the first antibody which is to bind to the SH2 domain containing protein. The secondary antibody has conjugated to it a substrate for detection. The antibodies bind and form a binding pair of antibodies Ab1 and Ab2. Ab1 remains available to bind the SH2 domain containing protein for which it is specific. Ab2 remains conjugated to a substrate for chemiluminescence detection later.
# (§2) The solution containing binding pairs of primary and secondary antibodies bound together is then added to the microwells that already contain the bound streptavidin, biotinylated receptor peptide and an SH2 domain containing protein bound to the receptor peptide. […]
# (§3) An alternate method for conducting the assay involves preincubating the SH2 domain containing protein with the primary antibody that is specific for the SH2 domain containing protein. […] After allowing time for the SH2-antibody complex to bind the biotinylated peptide bound to streptavidin, a second antibody specific for the first antibody is added, and the presence of the second antibody is detected as before, using a chemiluminescence reaction with either alkaline phosphatase detection or horse radish peroxidase detection. […]
# [3] = biological target: T2, STAT1; assay: Chemiluminescence binding assay, signal to noise, STAT1; set-up: key: high signal relative to background = + + + +
# Description: as §1, §2, §3
# [4] = biological target: T3, STAT4; assay: Chemiluminescence binding assay, signal to noise, STAT4; set-up: key: high signal relative to background = + + + +
# Description: as §1, §2, §3
# [5] = biological target: T4, STAT6; assay: binding affinity of the phosphorylated receptor peptide for STAT6; method not stated at the table (paragraph 32 speaks of IC50)
# [6] = biological target: T5, STAT4; assay: binding affinity of the phosphorylated receptor peptide for STAT4; method not stated at the table (paragraph 32 speaks of IC50)
# [7] = biological target: T5, STAT4; assay: concentration at 50% binding of the STAT protein to the phosphotyrosine peptide (Example 4)
molecule,measurement,setting,value
"CC(=O)N[C@@H](Cc1ccc(OP(=O)(O)O)cc1)C(=O)N[C@@H](CCCCN)C(=O)N1CCC[C@H]1C(=O)N[C@@H](Cc1ccccc1)C(N)=O [Ac-Y^PKPF-NH2, reference compound] (HELM PEPTIDE1{[ac].[O=C([C@H](Cc1ccc(OP(=O)(O)O)cc1)N[*:1])[*:2]].K.P.F.[am]}$$$$V2.0)",IC50,[1],22000 nM
CC[C@H](C)[C@H](NC(=O)[C@H](CC(C)C)NC(=O)[C@H](CC(=O)O)NC(=O)[C@H](CCC(N)=O)NC(=O)[C@H](Cc1c[nH]c2ccccc12)NC(=O)[C@@H]1CCCN1C(=O)[C@@H](NC(=O)[C@H](Cc1ccc(OP(=O)(O)O)cc1)NC(=O)CNC(=O)[C@@H](N)CCC(=O)O)C(C)C)C(=O)O [EGY^PVPWQDLI] (HELM PEPTIDE1{E.G.[O=C([C@H](Cc1ccc(OP(=O)(O)O)cc1)N[*:1])[*:2]].V.P.W.Q.D.L.I}$$$$V2.0),"signal relative to background, STAT6",[2]; Ab1/Ab2 preincubation,+ + + + +
same,"signal relative to background, STAT6",[2]; STAT4/Ab preincubation (so in the source),+ + + + +
same,"signal relative to background, STAT6",[2]; Standard assay,+ +
same,IC50,[1],610 nM
GY^PDMPHVL: phosphotyrosine receptor peptide for STAT4 (also binds STAT1) (G[pY]DMPHVL),"signal relative to background, STAT1",[3]; Ab1/Ab2 preincubation,+ + + +
same,"signal relative to background, STAT1",[3]; STAT1/Ab preincubation,+ + + +
same,"signal relative to background, STAT1",[3]; Standard assay,+ +
same,"signal relative to background, STAT4",[4]; Ab1/Ab2 preincubation,+ + + +
same,"signal relative to background, STAT4",[4]; STAT4/Ab preincubation,+ + + +
same,"signal relative to background, STAT4",[4]; Standard assay,+ +
Ac-Y^PVPWQ-NH2 (peptide),BINDING AFFINITY,[5],1.5 µM
Ac-Y^PKPF-NH2 (peptide),BINDING AFFINITY,[5],22 µM
Ac-Y^PVPW-NH2 (peptide),BINDING AFFINITY,[5],1.2 µM
"CC(C)C[C@H](NC(=O)[C@@H](NC(=O)[C@H](Cc1c[nH]cn1)NC(=O)[C@@H]1CCCN1C(=O)[C@H](CCCCN)NC(=O)[C@H](CC(=O)O)NC(=O)[C@H](Cc1ccc(OP(=O)(O)O)cc1)NC(=O)CNC(=O)[C@H](Cc1ccccc1)NC(=O)[C@@H](N)CO)C(C)C)C(=O)O [SFGY*DKPHVL, reference compound] (HELM PEPTIDE1{S.F.G.[O=C([C@H](Cc1ccc(OP(=O)(O)O)cc1)N[*:1])[*:2]].D.K.P.H.V.L}$$$$V2.0)",IC50,[1],> 100000 nM
CC(=O)N[C@@H](Cc1ccc(OP(=O)(O)O)cc1)C(=O)N[C@H](C(=O)N1CCC[C@H]1C(=O)N[C@@H](Cc1c[nH]c2ccccc12)C(N)=O)C(C)C [Ac-Y^PVPW-NH2] (HELM PEPTIDE1{[ac].[O=C([C@H](Cc1ccc(OP(=O)(O)O)cc1)N[*:1])[*:2]].V.P.W.[am]}$$$$V2.0),IC50,[1],1200 nM
CC(=O)N[C@@H](Cc1ccc(OP(=O)(O)O)cc1)C(=O)N[C@H](C(=O)N1CCC[C@H]1C(=O)N[C@@H](Cc1c[nH]c2ccccc12)C(=O)N[C@@H](CCC(N)=O)C(N)=O)C(C)C [Ac-Y^PVPWQ-NH2] (HELM PEPTIDE1{[ac].[O=C([C@H](Cc1ccc(OP(=O)(O)O)cc1)N[*:1])[*:2]].V.P.W.Q.[am]}$$$$V2.0),IC50,[1],1500 nM
B1,BINDING AFFINITY,[6],2.9 µM
B2,BINDING AFFINITY,[6],0.93 µM
B3,BINDING AFFINITY,[6],0.51 µM
B4,BINDING AFFINITY,[6],0.7 µM
B5,BINDING AFFINITY,[6],0.39 µM
B6,IC50,[7],30000 nM
